Measured values: US20070148164A1 (Biogen, published 2007)

Experiments:
[1] = biological target: T1, biotinylated human FcRn-huM4Fc fusion protein (human, biotinylated with BiotinXX sulfosuccinimidyl ester (sites not given)); experiment: FRET competition, pH 5.8: competitor mAb against Eu-labelled h5C8 for biotinylated hFcRnFc; reference w.t. control antibody
T1 construct: also called bhFcRnFc; biotinylated Fc/FcRn fusion protein

[2] = biological target: T1, biotinylated human FcRn-huM4Fc fusion …; experiment: AlphaScreen competition, pH 6.0: altered antibody against human IgG1 acceptor beads for biotinylated hFcRnFc; reference control antibody

Binder	fold lower FcRn binding affinity than the control antibody [1] [fold]	fold lower FcRn binding affinity than the control antibody [2] [fold]
huCBE11 altered antibody with mutation N434L (antibody, human IgG1, kappa, Position is in EU numbering) heavy: not shown light: DIQMTQSPSSLSASVGDRVTITCKAGQDIKSYLSWYQQKPGKAPKLLIYYATRLADGVPSRFSGSGSGTDYTLTISSLQPEDFATYYCLQHGESPWTFGGGTKLEIKRTVAAPSVFIFPPSDEQLKSGTASVVCLLNNFYPREAKVQWKVDNALQSGNSQESVTEQDSKDSTYSLSSTLTLSKADYEKHKVYACEVTHQGLSSPVTKSFNRGEC	~4000	–
huCBE11 altered antibody with mutation Q438E (antibody, human IgG1, kappa, Position is in EU numbering) heavy: not shown light: DIQMTQSPSSLSASVGDRVTITCKAGQDIKSYLSWYQQKPGKAPKLLIYYATRLADGVPSRFSGSGSGTDYTLTISSLQPEDFATYYCLQHGESPWTFGGGTKLEIKRTVAAPSVFIFPPSDEQLKSGTASVVCLLNNFYPREAKVQWKVDNALQSGNSQESVTEQDSKDSTYSLSSTLTLSKADYEKHKVYACEVTHQGLSSPVTKSFNRGEC	–	~1500
